This assay concerns the target human GALV receptor protein (gibbon ape leukemia virus receptor) (human).

“And” between values parts separate entries of the source, which are not always exact repeats. Equal values may be shown once.

With gibbon ape leukemia virus, the Foci/3 × 10^4 Cells (PG4 indicator cells) after exposure to GALV (foci/3 × 10^4 cells) is 382 and 1000.

Source of the values: patent publication US5414076.
